Columns and labels:
[1] = target: Hsp16.3, 16 kDa alpha-crystallin like heat shock protein of Mycobacterium tuberculosis, recombinant 6xHis-tagged (Mycobacterium tuberculosis) (UniProt P9WMK1); experiment: reverse phage ELISA on coated Hsp16.3, anti-M13-HRP, A405
[2] = target: Hsp16.3, 16 kDa alpha-crystallin like heat shock protein of Mycobacterium tuberculosis, recombinant 6xHis-tagged (Mycobacterium tuberculosis) (UniProt P9WMK1); experiment: cell-based or functional assay

Sequence of Hsp16.3, 16 kDa alpha-crystallin like heat shock protein of Mycobacterium tuberculosis, recombinant 6xHis-tagged (Mycobacterium tuberculosis) (P9WMK1 1-144, tags left off): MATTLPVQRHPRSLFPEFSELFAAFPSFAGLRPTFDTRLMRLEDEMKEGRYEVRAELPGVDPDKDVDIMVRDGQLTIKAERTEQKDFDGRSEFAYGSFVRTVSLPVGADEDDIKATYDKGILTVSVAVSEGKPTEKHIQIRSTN

Substance | fold binding over non-specific control BSA [1] | IC50 of inhibition of chaperon activity of Hsp16.3 (ADH heat aggregation assay, A360) [2] | aggregation of ADH restored in the presence of Hsp16.3 and 100 µM peptide (A360 at saturation) [2]
M13 phage clone displaying peptide Seq ID 9 (Lys-Met-His-Ala-Thr-Asn-His), from Ph.D.-7 library | 3 fold |  | 
synthetic peptide Seq ID 10 (Seq ID 9 with Gly-Gly-Gly-Ser at the C-terminal end), C-terminus amidated |  | 47 µM | 70%
